The record followed here is the PETadex activity labels (doi:10.1021/acscatal.9b00568).

Sequences and labels used below:
B1: unnamed (protein)
chain: MNFPRASRLMQAAVLGGLMAVSAAATAQTNPYARGPNPTAASLEASAGPFTVRSFTVSRPSGYGAGTVYYPTNAGGTVGAIAIVPGYTARQSSIKWWGPRLASHGFVVITIDTNSTLDQPESRSSQQMAALRQVASLNGTSSSPIYGKVDTARMGVMGWSMGGGGSLISAANNPSLKAAAPQAPWHSSTNFSSVTVPTLIFACENDSIAPVNSSALPIYDSMSRNAKQFLEINGGSHSCANSGNSNQALIGKKGVAWMKRFMDNDTRYSTFACENPNSTAVSDFRTANCS
B2: unnamed (protein)
chain: MNFPRASRLMQAAVLGGLMAVSAAATAQTNPYARGPNPTAASLEASAGPFTVRSFTVSRPSGYGAGTVYYPTNAGGTVGAIAIVPGYTARQSSIKWWGPRLASHGFVVITIDTNSTLDQPSSRSSQQMAALRQVASLNGTSSSPIYGKVDTARMGVMGWSMGGGGSLISAANNPSLKAAASQAPWDSSTNFSSVTVPTLIFACENDSIAPVNSSALPIYDSMSRNAKQFLEINGGSHSCANSGNSNQALIGKKGVAWMKRFMDNDTRYSTFACENPNSTRVSDFRTANCS
B3: unnamed (protein)
chain: MNFPRASRLMQAAVLGGLMAVSAAATAQTNPYARGPNPTAASLEASAGPFTVRSFTVSRPSGYGAGTVYYPTNAGGTVGAIAIVPGYTARQSSIKWWGPRLASHGFVVITIDTNSTLDQPSSRSSQQMAALRQVASLNGTSSSPIYGKVDTARMGVMGWSMGGGGSLISAANNPSLKAAAPQAPWLSSTNFSSVTVPTLIFACENDSIAPVNSSALPIYDSMSRNAKQFLEINGGSHSCANSGNSNQALIGKKGVAWMKRFMDNDTRYSTFACENPNSTRVSDFRTANCS
B4: unnamed (protein)
chain: MNFPRASRLMQAAVLGGLMAVSAAATAQTNPYARGPNPTAASLEASAGPFTVRSFTVSRPSGYGAGTVYYPTNAGGTVGAIAIVPGYTARQSSIKWWGPRLASHGFVVITIDTNSTLDQPSSRSSQQMAALRQVASLNGTSSSPIYGKVDTARMGVMGWSMGGGGSLISAANNPSLKAAAPQAPWFSSTNFSSVTVPTLIFACENDSIAPVNSSALPIYDSMSRNAKQFLEINGGSHSCANSGNSNQALIGKKGVAWMKRFMDNDTRYSTFACENPNSTRVSDFRTANCS
B5: unnamed (protein)
chain: MNFPRASRLMQAAVLGGLMAVSAAATAQTNPYARGPNPTAASLEASAGPFTVRSFTVSRPSGYGAGTVYYPTNAGGTVGAIAIVPGYTARQSSIKWWGPRLASHGFVVITIDTNSTLDQPESRSSQQMAALRQVASLNGTSSSPIYGKVDTARMGVMGWSMGGGGSLISAANNPSLKAAAPQAPWDSSTNFSSVTVPTLIFACENDSIAPVNSSALPIYDSMSRNAKQFLEINGGSHSCANSGNSNQALIGKKGVAWMKRFMDNDTRYSTFACENPNSTRVSDFRTANCS
B6: unnamed (protein)
chain: MNFPRASRLMQAAVLGGLMAVSAAATAQTNPYARGPNPTAASLEASAGPFTVRSFTVSRPSGYGAGTVYYPTNAGGTVGAIAIVPGYTARQSSIKWWGPRLASHGFVVITIDTNSTLDQPSSRSSQQMAALRQVASLNGTSSSPIYGKVDTARMGVMGWSMGGGGSLISAANNPSLKAAAPQAPWDSSTNFSSVTVPTLIFACENDSIAPVNSSALPIYDSMSRNAKQFLEINGGSHSCANSGNSNQALIGKKGVAWMKRFMDNDTRYSTFACENPNSTRVSDFRTANCS
B7: unnamed (protein)
chain: MNFPRASRLMQAAVLGGLMAVSAAATAQTNPYARGPNPTAASLEASAGPFTVRSFTVSRPSGYGAGTVYYPTNAGGTVGAIAIVPGYTARQSSIKWWGPRLASHGFVVITIDTNSTLDQPSSRSSQQMAALRQVASLNGTSSSPIYGKVDTARMGVMGWSMGGGGSLISAANNPSLKAAAGQAPWDSSTNFSSVTVPTLIFACENDSIAPVNSSALPIYDSMSRNAKQFLEINGGSHSCANSGNSNQALIGKKGVAWMKRFMDNDTRYSTFACENPNSTRVSDFRTANCS
B8: unnamed (protein)
chain: MNFPRASRLMQAAVLGGLMAVSAAATAQTNPYARGPNPTAASLEASAGPFTVRSFTVSRPSGYGAGTVYYPTNAGGTVGAIAIVPGYTARQSSIKWWGPRLASHGFVVITIDTNSTLDQPSSRSSQQMAALRQVASLNGTSSSPIYGKVDTARMGVMGWSMGGGGSLISAANNPSLKAAAAQAPWDSSTNFSSVTVPTLIFACENDSIAPVNSSALPIYDSMSRNAKQFLEINGGSHSCANSGNSNQALIGKKGVAWMKRFMDNDTRYSTFACENPNSTRVSDFRTANCS
B9: unnamed (protein)
chain: MNFPRASRLMQAAVLGGLMAVSAAATAQTNPYARGPNPTAASLEASAGPFTVRSFTVSRPSGYGAGTVYYPTNAGGTVGAIAIVPGYTARQSSIKWWGPRLASHGFVVITIDTNSTLDQPSSRSSQQMAALRQVASLNGTSSSPIYGKVDTARMGVMGWSMGGGGSLISAANNPSLKAAAPQAPWVSSTNFSSVTVPTLIFACENDSIAPVNSSALPIYDSMSRNAKQFLEINGGSHSCANSGNSNQALIGKKGVAWMKRFMDNDTRYSTFACENPNSTRVSDFRTANCS
B10: unnamed (protein)
chain: MNFPRASRLMQAAVLGGLMAVSAAATAQTNPYARGPNPTAASLEASAGPFTVRSFTVSRPSGYGAGTVYYPTNAGGTVGAIAIVPGYTARQSSIKWWGPRLASHGFVVITIDTNSTLDQPDSRSSQQMAALRQVASLNGTSSSPIYGKVDTARMGVMGWSMGGGGSLISAANNPSLKAAAPQAPWDSSTNFSSVTVPTLIFACENDSIAPVNSSALPIYDSMSRNAKQFLEINGGSHSCANSGNSNQALIGKKGVAWMKRFMDNDTRYSTFACENPNSTRVSDFRTANCS
B11: unnamed (protein)
chain: MNFPRASRLMQAAVLGGLMAVSAAATAQTNPYARGPNPTAASLEASAGPFTVRSFTVSRPSGYGAGTVYYPTNAGGTVGAIAIVPGYTARQSSIKWWGPRLASHGFVVITIDTNSTLDQPDSRSSQQMAALRQVASLNGTSSSPIYGKVDTARMGVMGWSMGGGGSLISAANNPSLKAAAPQAPWHSSTNFSSVTVPTLIFACENDSIAPVNSSALPIYDSMSRNAKQFLEINGGSHSCANSGNSNQALIGKKGVAWMKRFMDNDTRYSTFACENPNSTRVSDFRTANCS

Substrate in the first data set: PET
As to the kind of experiment: Proxy for plastic degradation [HPLC-UV]. Conditions: pH 9; 30 °C; 0 h; part of the chain shown.
With B1, the “Proxy for plastic degradation” value stood at 0 µM.

With B6, the “Proxy for plastic degradation” value is 0 µM.

The same data set, now with this note: pH 9; 30 °C; 1 h; part of the chain shown.
On to B1, for which the “Proxy for plastic degradation” value stood at 25 µM.

With B6, the “Proxy for plastic degradation” value turned out to be 5 µM.

Staying with this data set, now noted: pH 9; 30 °C; 2 h; part of the chain shown.
As to B1, the “Proxy for plastic degradation” value stood at 42 µM.

For the protein B6, the “Proxy for plastic degradation” value came to 7 µM.

The same data set, now with this note: pH 9; 30 °C; 3 h; part of the chain shown.
Take B1: the “Proxy for plastic degradation” value came out at 50 µM.

For B6, the “Proxy for plastic degradation” value came to 10 µM.

Still in this data set, the particulars now being: pH 9; 30 °C; 4 h; part of the chain shown.
On to B1, for which the “Proxy for plastic degradation” value was determined as 55 µM.

Regarding B6, the “Proxy for plastic degradation” value stood at 11 µM.

Staying with this data set, now noted: pH 9; 30 °C; 5 h; part of the chain shown.
For B1, the “Proxy for plastic degradation” value is 68 µM.

As to B6, the “Proxy for plastic degradation” value came out at 11 µM.

Still in this data set, the particulars now being: pH 9; 30 °C; 6 h; part of the chain shown.
For B1, the “Proxy for plastic degradation” value is 70 µM.

Take B6: the “Proxy for plastic degradation” value stood at 12 µM.

The data set is the same for the next values; noted with them: pH 9; 30 °C; 7 h; part of the chain shown.
Regarding B1, the “Proxy for plastic degradation” value came to 80 µM.

As to B6, the “Proxy for plastic degradation” value is 14 µM.

The same data set, now with this note: pH 9; 30 °C; 8 h; part of the chain shown.
For the protein B1, the “Proxy for plastic degradation” value was 75 µM.

With B6, the “Proxy for plastic degradation” value was 15 µM.

The data set is the same for the next values; noted with them: pH 9; 30 °C; 9 h; part of the chain shown.
As for B1, the “Proxy for plastic degradation” value was found to be 90 µM.

As to B6, the “Proxy for plastic degradation” value came out at 13 µM.

The data set is the same for the next values; noted with them: pH 9; 30 °C; 10 h; part of the chain shown.
Take B1: the “Proxy for plastic degradation” value came to 92 µM.

Take B6: the “Proxy for plastic degradation” value amounted to 15 µM.

Staying with this data set, now noted: pH 9; 40 °C; 0 h; part of the chain shown.
B1: the “Proxy for plastic degradation” value is 0 µM.

B6: the “Proxy for plastic degradation” value is 0 µM.

The same data set, now with this note: pH 9; 40 °C; 1 h; part of the chain shown.
Turning to B1, the “Proxy for plastic degradation” value amounted to 70 µM.

Take B6: the “Proxy for plastic degradation” value was 11 µM.

The data set is the same for the next values; noted with them: pH 9; 40 °C; 2 h; part of the chain shown.
On to B1, for which the “Proxy for plastic degradation” value is 82 µM.

For the protein B6, the “Proxy for plastic degradation” value came to 10 µM.

The same data set, now with this note: pH 9; 40 °C; 3 h; part of the chain shown.
Turning to B1, the “Proxy for plastic degradation” value worked out at 105 µM.

For B6, the “Proxy for plastic degradation” value was determined as 10 µM.

Still in this data set, the particulars now being: pH 9; 40 °C; 4 h; part of the chain shown.
As for B1, the “Proxy for plastic degradation” value was determined as 100 µM.

Take B6: the “Proxy for plastic degradation” value was determined as 10 µM.

Staying with this data set, now noted: pH 9; 40 °C; 5 h; part of the chain shown.
For the protein B1, the “Proxy for plastic degradation” value was found to be 102 µM.

On to B6, for which the “Proxy for plastic degradation” value is 7 µM.

Staying with this data set, now noted: pH 9; 40 °C; 6 h; part of the chain shown.
Consider B1, for which the “Proxy for plastic degradation” value came to 104 µM.

Turning to B6, the “Proxy for plastic degradation” value is 8 µM.

Staying with this data set, now noted: pH 9; 40 °C; 7 h; part of the chain shown.
As to B1, the “Proxy for plastic degradation” value amounted to 100 µM.

Take B6: the “Proxy for plastic degradation” value amounted to 9 µM.

The data set is the same for the next values; noted with them: pH 9; 40 °C; 8 h; part of the chain shown.
With B1, the “Proxy for plastic degradation” value is 104 µM.

In the case of B6, the “Proxy for plastic degradation” value amounted to 8 µM.

Staying with this data set, now noted: pH 9; 40 °C; 9 h; part of the chain shown.
For the protein B1, the “Proxy for plastic degradation” value was 115 µM.

On to B6, for which the “Proxy for plastic degradation” value came to 7 µM.

The same data set, now with this note: pH 9; 40 °C; 10 h; part of the chain shown.
As for B1, the “Proxy for plastic degradation” value was determined as 108 µM.

Regarding B6, the “Proxy for plastic degradation” value worked out at 8 µM.

The data set is the same for the next values; noted with them: pH 9; 30 °C; 24 h.
Turning to B2, the “Proxy for plastic degradation” value was 3.5 µM.

Consider B3, for which the “Proxy for plastic degradation” value amounted to 2.1 µM.

Regarding B4, the “Proxy for plastic degradation” value amounted to 6 µM.

On to B5, for which the “Proxy for plastic degradation” value was 10.8 µM.

In the case of B7, the “Proxy for plastic degradation” value was determined as 2.3 µM.

As for B8, the “Proxy for plastic degradation” value was determined as 4.2 µM.

For B9, the “Proxy for plastic degradation” value was determined as 2.4 µM.

As to B10, the “Proxy for plastic degradation” value is 5.3 µM.

Turning to B11, the “Proxy for plastic degradation” value is 15.2 µM.

The same data set, now with this note: pH 9; 30 °C; 72 h.
On to B2, for which the “Proxy for plastic degradation” value was found to be 4.9 µM.

In the case of B3, the “Proxy for plastic degradation” value turned out to be 3.1 µM.

As to B4, the “Proxy for plastic degradation” value was 11.4 µM.

As for B5, the “Proxy for plastic degradation” value was found to be 19 µM.

For B7, the “Proxy for plastic degradation” value was found to be 3.3 µM.

For the protein B8, the “Proxy for plastic degradation” value stood at 7.8 µM.

Consider B9, for which the “Proxy for plastic degradation” value came out at 4 µM.

B10: the “Proxy for plastic degradation” value amounted to 24.3 µM.

Take B11: the “Proxy for plastic degradation” value is 23.2 µM.

The same data set, now with this note: pH 9; 40 °C; 24 h.
Regarding B2, the “Proxy for plastic degradation” value is 1.9 µM.

For B3, the “Proxy for plastic degradation” value is 2 µM.

As for B4, the “Proxy for plastic degradation” value turned out to be 7.5 µM.

Take B5: the “Proxy for plastic degradation” value is 3.6 µM.

Take B7: the “Proxy for plastic degradation” value was found to be 1.2 µM.

As for B8, the “Proxy for plastic degradation” value stood at 7.5 µM.

Consider B9, for which the “Proxy for plastic degradation” value worked out at 1.9 µM.

Take B10: the “Proxy for plastic degradation” value came out at 2.6 µM.

Regarding B11, the “Proxy for plastic degradation” value was found to be 28.9 µM.

Staying with this data set, now noted: pH 9; 40 °C; 72 h.
On to B2, for which the “Proxy for plastic degradation” value stood at 2.2 µM.

As for B3, the “Proxy for plastic degradation” value was 7.1 µM.

Turning to B4, the “Proxy for plastic degradation” value was 14.4 µM.

Regarding B5, the “Proxy for plastic degradation” value was 5.2 µM.

B7: the “Proxy for plastic degradation” value turned out to be 1.7 µM.

In the case of B8, the “Proxy for plastic degradation” value was 7.6 µM.

Consider B9, for which the “Proxy for plastic degradation” value was found to be 7.1 µM.

For the protein B10, the “Proxy for plastic degradation” value came out at 7.2 µM.

As to B11, the “Proxy for plastic degradation” value turned out to be 38.4 µM.
